This is an account of results in publication PMC5427286, “Structural model of dodecameric heat-shock protein Hsp21: Flexible N-terminal arms interact with client proteins while C-terminal tails maintain the dodecamer and chaperone activity” (The Journal of Biological Chemistry, 2017).

Data set [1] deals with the molecule itself. Put plainly: SAXS; batch SAXS at 2.5, 5 and 10 mg/ml; ensemble optimization method (EOM) with pools of dimers, hexamers and dodecamers.
Data set [2] concerns the molecule itself. Kind of data set: cross-linking; BS3 at protein/cross-linker ratios of 1:10 and 1:60, protein 25-250 uM, read by denaturing SDS-PAGE.

B1: Hsp21, the 21-kDa chloroplast-localized small heat-shock protein of Arabidopsis thaliana (natural protein)
chain: not shown
notes: N-terminal peptide printed as 1MQDQR5, IXVXI motif 179IDVQI183, rigid bodies of residues 83-184. numbers count on: the mature protein; Dodecamer of two trimer-of-dimer discs; The deposited model lacks part of the NTR; also called Hsp21 WT; Hsp21WT; source: E. coli ER2566, purified (ammonium sulfate precipitation, SEC); copies: 12
On to B1, for which the “stoichiometry N” value in data set [1] is 6; in data set [2] it was 12.

The term stoichiometry N denotes the number of molecules, sites or subunits per partner or assembly.
